Consider three molecules from patent publication US20120214173A1, “Methods of Identifying Modulators of an Ehd Polypeptide” (priority 2007, published 2012).

Series [1] is described as follows: Negative stain EM of liposome tubulation/oligomerisation. The note with it: 2.5 μM protein, PS liposomes. The method, then:
(§1) Amino acid numbering corresponds to mouse EHD2. b, EHD2 binds to adenine nucleotides, as determined by ITC. For clarity, ΔΔH=ΔHn−ΔH1 is plotted. […] Images were acquired close to the basal cell surface. f, Nucleotide hydrolysis was measured by HPLC in the absence (empty symbols) or presence of Folch liposomes (filled symbols). Data represent mean and standard deviation for two (intrinisic reactions) or three (stimulated reactions) independent experiments.
EHD2 was incubated with the indicated liposomes in the presence and absence of nucleotides and analysed by EM as described in Methods. a, EHD2 deformed PS liposomes into tubular networks, here in the presence of ATP-γ-S. b, Enlarged views of the indicated area in a. Note the presence of regularly spaced EHD2 rings (some are indicated with arrows). This even spacing may be due to the curvature stress generated by an EHD2 ring along the axis of the lipid tubule which might disfavour binding of the next ring in the direct vicinity (see below). c, Some of the lipid tubules (especially at higher protein concentration) were tightly packed with EHD2 oligomeric rings. d,e In the presence of ADP and in the absence of nucleotide (f,g), EHD2 also tubulated PS liposomes and formed ring-like structures around the tubules. e,g are enlarged views of the indicated areas in d and f, respectively.
(§2) Reactions were started by the addition of the protein to the final reaction mix and nucleotide hydrolysis was followed using standard HPLC measurement^27. Initial rates were determined by applying a linear fit to data points up to 40% nucleotide hydrolysis. For electron microscopic studies, 2.5 μM EHD2 in 20 mM HEPES (pH 7.5), 150 mM NaCl, 1 mM MgCl2 was incubated for 15 min at 25° C. in the presence of 1 mM nucleotide and 0.05 mg/ml (final concentration) of the indicated liposomes. Samples were spotted on carbon-coated copper grids (Canemco and Marivac) and negatively stained with 2% uranyl acetate.
Nucleotide-independence of liposome tubulation in vitro is also observed for dynamin^16. No noticeable tubule fission or alteration in tubule diameter was found for EHD2 in the presence of ATP. […] Folch liposomes were also tabulated by EHD2. However, with synthetic liposomes containing only 2.5% PIP2 and in the absence of PS, the amount of EHD binding was reduced, and in this less favourable binding condition we only observed tubulation in the presence of ATP-γ-S and ADP but not in the absence of nucleotides (FIG. 7).

The target in a further series is T1, EHD2 (Mus musculus, UniProt Q8BH64).
T1 construct: Mouse EHD2 full-length protein and all mutants were expressed as N-terminal His-fusions followed by a PreScission cleavage site; His (N, cleaved yes); made in house; host or cells: Escherichia coli BL21 DE3 Rosetta
T1 sequence (Q8BH64 1-543): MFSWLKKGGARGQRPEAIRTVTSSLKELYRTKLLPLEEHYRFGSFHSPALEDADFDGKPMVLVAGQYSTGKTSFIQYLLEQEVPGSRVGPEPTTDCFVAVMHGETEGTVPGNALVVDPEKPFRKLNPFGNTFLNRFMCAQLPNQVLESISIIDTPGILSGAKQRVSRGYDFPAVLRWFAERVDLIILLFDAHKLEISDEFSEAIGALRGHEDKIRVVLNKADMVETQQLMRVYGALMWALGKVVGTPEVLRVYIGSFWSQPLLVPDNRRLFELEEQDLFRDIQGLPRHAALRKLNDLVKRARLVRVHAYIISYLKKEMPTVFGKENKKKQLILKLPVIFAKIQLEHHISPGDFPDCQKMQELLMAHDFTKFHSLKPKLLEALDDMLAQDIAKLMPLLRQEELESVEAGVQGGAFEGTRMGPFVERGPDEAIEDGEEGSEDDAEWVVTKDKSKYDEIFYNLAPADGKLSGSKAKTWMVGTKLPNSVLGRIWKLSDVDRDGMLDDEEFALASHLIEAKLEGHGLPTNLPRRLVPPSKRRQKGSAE
Briefly: Multiple turnover ATPase assay (nucleotide hydrolysis by HPLC) with or without Folch liposomes. It is filed as biochemical. The method, then: as §1
(§3) ITC measurements were performed at 10° C. in 20 mM HEPES (pH 7.5), 300 mM NaCl, 2 mM MgCl2. Liposome binding assays were performed as described previously (www.endocytosis.org). Multiple turnover ATPase assays were performed in 20 mM HEPES (pH 7.5), 135 mM NaCl, 15 mM KCl, 1 mM MgCl2 at 30° C. with 10 μM EHD2 (or mutants) as enzyme and 100 μM ATP as substrate, in the absence or presence of 1 mg/ml Folch liposomes (Sigma-Aldrich).
as §2
We next monitored the effect of membrane-binding on the ATPase activity of. EHD2 under multiple-turnover conditions (10-fold excess of ATP over EHD2), in the presence and absence of Folch liposoines (FIG. 1f). The intrinsic/background ATPase activity is extremely slow (kobs=0.7 h^−1) but is stimulated 8-fold in the presence of Folch or PS liposomes (kobs=5.6 h^−1).

For a further series, the system named is HeLa cells. Briefly: Over-expression of EGFP-tagged EHD2 and mutants in HeLa cells (confocal / live imaging). It is filed as cell-based. Conditions: for distribution of EGFP-tagged protein over-expressed in HeLa cells: 24 h after transfection, fixed. The method, then:
as §1
(§4) Nucleotide hydrolysis was measured as described in FIG. 1f. In vitro tubulation activity of PS liposomes was analysed as described in FIG. 1d. f, EGFP-tagged mutants were over-expressed in HeLa cells. […] For each construct, three independent experiments with ≈50 cells/experiments were analysed.
Ultracentrifugation. Sedimentation velocity experiments were performed in a Beckman Optima XLA ultracentrifuge, using an An-60Ti rotor. Centrifugation was at 50,000 rev×min and 5° C. at an EHD2 concentration of 15 μM, with scans as fast as possible (˜1.5 min intervals). The data were analysed using DCDT+ v.2^44,45, with the partial specific volume for the protein (from the amino acid composition) and solvent density and viscosity calculated using Sednterp^46. Selected scans (at equal, ˜15 min intervals), and of g(s20,w) (the amount of material sedimenting between s20,w and (s20,w+δs)) and also the residuals for fitting the data with DCDT+, were plotted with the program profit v.5.6.7 (Quantum soft, Switzerland). Cell biology. N-terminal EGFP-tagged EHD2 and all mutants were over-expressed in HeLa cells from the pEGFP-C3 vector (Clontech). HeLa cells were grown as per ECACC guidelines with 10% fetal bovine serum and transfected using Genejuice (Novagen) for transient protein expression. 24 h after transfection, cells were fixed for 10 min at 37° C. in 3% paraformaldehyde and mounted. All confocal images were taken sequentially using a BioRad Radiance system and LaserSharp software (Biorad). For real-time microscopy, transfected cells on glass-bottom Petri dishes (WillCo Wells BV, Amsterdam) were washed with 25 mM HEPES (pH 7.5), 125 mM NaCl, 5 mM KCl, 10 mM D-glucose, 1 mM MgCl2, 2 mM CaCl), and epifluorescence images were taken using an Olympus IX70 microscope (Southhall, UK) and Argon laser (Melles Griot, Carlsbad, Calif.) with a Princeton instruments (Trenton, N.J.) cooled I-PentaMAX camera with MetaMorph software (Universal imaging).
EHD2 wild-type was over-expressed in HeLa cells for 24 h and imaged by EPI-fluorescence for approximately 30 min.
EHD2 T94A was over-expressed in HeLa cells for 24 h and imaged by EPI-fluorescence for approximately 30 min. […] EHD2 I157Q was over-expressed in HeLa cells for 24 h and imaged by EPI-fluorescence for approximately 30 min.

Series [2] is described as follows: Liposome co-sedimentation (membrane binding) assay. Conditions: Folch / PS liposomes. The method, then: as §1, §4, §3
Mouse full-length EHD2 was expressed in bacteria and purified to homogeneity (FIG. 5). The purified protein was nucleotide-free as judged by HPLC analysis. […] It was previously reported that EHDs—despite having a predicted G-domain—bind to adenine nucleotides^15. […] We still refer to this domain as a G-domain because the sequence and fold (see below) are clearly similar to other G-domains. […] Using synthetic liposomes containing various different phosphatidyl-inositols (PI) (FIG. 1c) we observed best binding to liposomes containing PI(4,5)bisphosphate (PIP2).

“Also recorded” adds a separate entry of the source.

B1: EHD2 double mutant of the two side-site xPF motifs (F122A/F128A) (protein)
chain: MFSWLKKGGARGQRPEAIRTVTSSLKELYRTKLLPLEEHYRFGSFHSPALEDADFDGKPMVLVAGQYSTGKTSFIQYLLEQEVPGSRVGPEPTTDCFVAVMHGETEGTVPGNALVVDPEKPARKLNPAGNTFLNRFMCAQLPNQVLESISIIDTPGILSGAKQRVSRGYDFPAVLRWFAERVDLIILLFDAHKLEISDEFSEAIGALRGHEDKIRVVLNKADMVETQQLMRVYGALMWALGKVVGTPEVLRVYIGSFWSQPLLVPDNRRLFELEEQDLFRDIQGLPRHAALRKLNDLVKRARLVRVHAYIISYLKKEMPTVFGKENKKKQLILKLPVIFAKIQLEHHISPGDFPDCQKMQELLMAHDFTKFHSLKPKLLEALDDMLAQDIAKLMPLLRQEELESVEAGVQGGAFEGTRMGPFVERGPDEAIEDGEEGSEDDAEWVVTKDKSKYDEIFYNLAPADGKLSGSKAKTWMVGTKLPNSVLGRIWKLSDVDRDGMLDDEEFALASHLIEAKLEGHGLPTNLPRRLVPPSKRRQKGSAE
As for B1, the “membrane-stimulated ATPase activity” value with Q8BH64 is recorded as “did not show any membrane-stimulated ATPase activity”. Also, the “liposome tubulation / oligomerisation by EM” value in series [1] is listed as “did not find any regular oligomers on liposomes”. In addition, the “membrane-stimulated ATPase activity (in words)” value in the series with EHD2 (presence of Folch liposomes) is reported as “did not show any membrane-stimulated ATPase activity”; with EHD2 (presence of Folch liposomes, listed as mutation of the side site xPFs motif) it was “completely prevented the membrane-stimulated ATPase reaction”.

B2: I157Q: EHD2 mutant with re-introduced catalytic glutamine in the active site (protein, UniProt Q8BH64 1-543, looked up, variant I157Q)
EH domain-containing protein 2: MFSWLKKGGARGQRPEAIRTVTSSLKELYRTKLLPLEEHYRFGSFHSPALEDADFDGKPMVLVAGQYSTGKTSFIQYLLEQEVPGSRVGPEPTTDCFVAVMHGETEGTVPGNALVVDPEKPFRKLNPFGNTFLNRFMCAQLPNQVLESISIIDTPGQLSGAKQRVSRGYDFPAVLRWFAERVDLIILLFDAHKLEISDEFSEAIGALRGHEDKIRVVLNKADMVETQQLMRVYGALMWALGKVVGTPEVLRVYIGSFWSQPLLVPDNRRLFELEEQDLFRDIQGLPRHAALRKLNDLVKRARLVRVHAYIISYLKKEMPTVFGKENKKKQLILKLPVIFAKIQLEHHISPGDFPDCQKMQELLMAHDFTKFHSLKPKLLEALDDMLAQDIAKLMPLLRQEELESVEAGVQGGAFEGTRMGPFVERGPDEAIEDGEEGSEDDAEWVVTKDKSKYDEIFYNLAPADGKLSGSKAKTWMVGTKLPNSVLGRIWKLSDVDRDGMLDDEEFALASHLIEAKLEGHGLPTNLPRRLVPPSKRRQKGSAE
Turning to B2, the “distribution of EGFP-tagged protein over-expressed in HeLa cells” value in the series on HeLa cells is “exclusively punctate staining; also recorded: labelled only very short tubules and puncta”. Further, in the series on HeLa cells (over-expressed 24 h, imaged approximately 30 min), the “dynamics of tubules and puncta by EPI-fluorescence live imaging” value was “No tubules can be found and the puncta are mostly motile”. Also, in series [1], the “liposome tubulation / oligomerisation by EM” value is on record as “tubulated liposomes”. Further, the “intrinsic/basal ATPase activity (in words)” value with EHD2 (absence of membranes) is “hydrolysed ATP faster than wild-type”. For the same molecule, the “membrane-stimulated ATPase activity (in words)” value in the series with EHD2 (presence of Folch liposomes) was “not further stimulated by membranes”.

B3: K328D: EHD2 polybasic cluster mutant (protein, UniProt Q8BH64 1-543, looked up, variant K328D)
EH domain-containing protein 2: MFSWLKKGGARGQRPEAIRTVTSSLKELYRTKLLPLEEHYRFGSFHSPALEDADFDGKPMVLVAGQYSTGKTSFIQYLLEQEVPGSRVGPEPTTDCFVAVMHGETEGTVPGNALVVDPEKPFRKLNPFGNTFLNRFMCAQLPNQVLESISIIDTPGILSGAKQRVSRGYDFPAVLRWFAERVDLIILLFDAHKLEISDEFSEAIGALRGHEDKIRVVLNKADMVETQQLMRVYGALMWALGKVVGTPEVLRVYIGSFWSQPLLVPDNRRLFELEEQDLFRDIQGLPRHAALRKLNDLVKRARLVRVHAYIISYLKKEMPTVFGKENKDKQLILKLPVIFAKIQLEHHISPGDFPDCQKMQELLMAHDFTKFHSLKPKLLEALDDMLAQDIAKLMPLLRQEELESVEAGVQGGAFEGTRMGPFVERGPDEAIEDGEEGSEDDAEWVVTKDKSKYDEIFYNLAPADGKLSGSKAKTWMVGTKLPNSVLGRIWKLSDVDRDGMLDDEEFALASHLIEAKLEGHGLPTNLPRRLVPPSKRRQKGSAE
On to B3, for which the “distribution of EGFP-tagged protein over-expressed in HeLa cells” value with HeLa cells is recorded as “completely cytoplasmic distribution”. Moreover, the “kobs stimulated ATPase reaction” value with EHD2 (10 μM protein, 100 μM ATP, 30° C., presence of 1 mg/ml Folch (or PS) liposomes) came out at 1.6 h⁻¹. In the series with EHD2 (presence of Folch liposomes), the “decrease in the stimulated ATPase rate versus wt” value is recorded as 75% and the “membrane-stimulated ATPase activity (in words)” value is “reduced ATPase stimulation”. In series [2], the “binding to liposomes (co-sedimentation)” value was “bound less to liposomes”.
